Data published in patent US20230174608A1 (published 2023).
Numbering of substitutions follows the chain as printed. *1 amine or outer side, *2 acyl side, *3 side chain or, on linkers, in order; H or OH if unused. Where no end group is shown, it is not given here. Side-chain parts run from the residue outwards. [ ]: non-standard residue; d: D form. The star is where a group is joined. C18 diacid = O=C(O)CCCCCCCCCCCCCCCCC(=O)*; γGlu = O=C(O)[C@H](CCC(=O)[*:2])N[*:1]; AEEA = NCCOCCOCC(=O)O; Aib = CC(C)(N)C(=O)O

B1: dgc007 (peptide)
peptide: HXQGTFTSDYSKYLDERAAKEFIAWLESGG
HELM: PEPTIDE1{H.[Aib].Q.G.T.F.T.S.D.Y.S.K.Y.L.D.E.R.A.A.K.E.F.I.A.W.L.E.S.G.G.[am]}|PEPTIDE2{[CCCCCCCCCCCCCCCC(=O)[*:2]].[gGlu]}$PEPTIDE1,PEPTIDE2,20:R3-2:R2$$$V2.0; N-terminus assumed
SMILES: CCCCCCCCCCCCCCCC(=O)N[C@@H](CCC(=O)NCCCC[C@H](NC(=O)[C@H](C)NC(=O)[C@H](C)NC(=O)[C@H](CCCNC(=N)N)NC(=O)[C@H](CCC(=O)O)NC(=O)[C@H](CC(=O)O)NC(=O)[C@H](CC(C)C)NC(=O)[C@H](Cc1ccc(O)cc1)NC(=O)[C@H](CCCCN)NC(=O)[C@H](CO)NC(=O)[C@H](Cc1ccc(O)cc1)NC(=O)[C@H](CC(=O)O)NC(=O)[C@H](CO)NC(=O)[C@@H](NC(=O)[C@H](Cc1ccccc1)NC(=O)[C@@H](NC(=O)CNC(=O)[C@H](CCC(N)=O)NC(=O)C(C)(C)NC(=O)[C@@H](N)Cc1c[nH]cn1)[C@@H](C)O)[C@@H](C)O)C(=O)N[C@@H](CCC(=O)O)C(=O)N[C@@H](Cc1ccccc1)C(=O)N[C@H](C(=O)N[C@@H](C)C(=O)N[C@@H](Cc1c[nH]c2ccccc12)C(=O)N[C@@H](CC(C)C)C(=O)N[C@@H](CCC(=O)O)C(=O)N[C@@H](CO)C(=O)NCC(=O)NCC(N)=O)[C@@H](C)CC)C(=O)O
B2: dgc008 (peptide)
peptide: B1 peptide with D15E
HELM: PEPTIDE1{H.[Aib].Q.G.T.F.T.S.D.Y.S.K.Y.L.E.E.R.A.A.K.E.F.I.A.W.L.E.S.G.G.[am]}|PEPTIDE2{[CCCCCCCCCCCCCCCC(=O)[*:2]].[gGlu]}$PEPTIDE1,PEPTIDE2,20:R3-2:R2$$$V2.0; N-terminus assumed
SMILES: CCCCCCCCCCCCCCCC(=O)N[C@@H](CCC(=O)NCCCC[C@H](NC(=O)[C@H](C)NC(=O)[C@H](C)NC(=O)[C@H](CCCNC(=N)N)NC(=O)[C@H](CCC(=O)O)NC(=O)[C@H](CCC(=O)O)NC(=O)[C@H](CC(C)C)NC(=O)[C@H](Cc1ccc(O)cc1)NC(=O)[C@H](CCCCN)NC(=O)[C@H](CO)NC(=O)[C@H](Cc1ccc(O)cc1)NC(=O)[C@H](CC(=O)O)NC(=O)[C@H](CO)NC(=O)[C@@H](NC(=O)[C@H](Cc1ccccc1)NC(=O)[C@@H](NC(=O)CNC(=O)[C@H](CCC(N)=O)NC(=O)C(C)(C)NC(=O)[C@@H](N)Cc1c[nH]cn1)[C@@H](C)O)[C@@H](C)O)C(=O)N[C@@H](CCC(=O)O)C(=O)N[C@@H](Cc1ccccc1)C(=O)N[C@H](C(=O)N[C@@H](C)C(=O)N[C@@H](Cc1c[nH]c2ccccc12)C(=O)N[C@@H](CC(C)C)C(=O)N[C@@H](CCC(=O)O)C(=O)N[C@@H](CO)C(=O)NCC(=O)NCC(N)=O)[C@@H](C)CC)C(=O)O
B3: dgc010 (peptide)
peptide: B1 peptide with D15E
HELM: PEPTIDE1{H.[Aib].Q.G.T.F.T.S.D.Y.S.K.Y.L.E.E.R.A.A.K.E.F.I.A.W.L.E.S.G.G.[am]}|PEPTIDE2{[CCCCCCCCCCCCCCCC(=O)[*:2]].[gGlu].[gGlu]}$PEPTIDE1,PEPTIDE2,20:R3-3:R2$$$V2.0; N-terminus assumed
SMILES: CCCCCCCCCCCCCCCC(=O)N[C@@H](CCC(=O)N[C@@H](CCC(=O)NCCCC[C@H](NC(=O)[C@H](C)NC(=O)[C@H](C)NC(=O)[C@H](CCCNC(=N)N)NC(=O)[C@H](CCC(=O)O)NC(=O)[C@H](CCC(=O)O)NC(=O)[C@H](CC(C)C)NC(=O)[C@H](Cc1ccc(O)cc1)NC(=O)[C@H](CCCCN)NC(=O)[C@H](CO)NC(=O)[C@H](Cc1ccc(O)cc1)NC(=O)[C@H](CC(=O)O)NC(=O)[C@H](CO)NC(=O)[C@@H](NC(=O)[C@H](Cc1ccccc1)NC(=O)[C@@H](NC(=O)CNC(=O)[C@H](CCC(N)=O)NC(=O)C(C)(C)NC(=O)[C@@H](N)Cc1c[nH]cn1)[C@@H](C)O)[C@@H](C)O)C(=O)N[C@@H](CCC(=O)O)C(=O)N[C@@H](Cc1ccccc1)C(=O)N[C@H](C(=O)N[C@@H](C)C(=O)N[C@@H](Cc1c[nH]c2ccccc12)C(=O)N[C@@H](CC(C)C)C(=O)N[C@@H](CCC(=O)O)C(=O)N[C@@H](CO)C(=O)NCC(=O)NCC(N)=O)[C@@H](C)CC)C(=O)O)C(=O)O
B4: dgc012 (peptide)
peptide: H[dS]QGTFTSDYSKYLEERAAK([AEEA-AEEA-γGlu-C18 diacid])EFVAWLEGG-NH2
modifications: N-terminus assumed
SMILES: CC(C)C[C@H](NC(=O)[C@H](Cc1c[nH]c2ccccc12)NC(=O)[C@H](C)NC(=O)[C@@H](NC(=O)[C@H](Cc1ccccc1)NC(=O)[C@H](CCC(=O)O)NC(=O)[C@H](CCCCNC(=O)COCCOCCNC(=O)COCCOCCNC(=O)CC[C@H](NC(=O)CCCCCCCCCCCCCCCCC(=O)O)C(=O)O)NC(=O)[C@H](C)NC(=O)[C@H](C)NC(=O)[C@H](CCCNC(=N)N)NC(=O)[C@H](CCC(=O)O)NC(=O)[C@H](CCC(=O)O)NC(=O)[C@H](CC(C)C)NC(=O)[C@H](Cc1ccc(O)cc1)NC(=O)[C@H](CCCCN)NC(=O)[C@H](CO)NC(=O)[C@H](Cc1ccc(O)cc1)NC(=O)[C@H](CC(=O)O)NC(=O)[C@H](CO)NC(=O)[C@@H](NC(=O)[C@H](Cc1ccccc1)NC(=O)[C@@H](NC(=O)CNC(=O)[C@H](CCC(N)=O)NC(=O)[C@@H](CO)NC(=O)[C@@H](N)Cc1c[nH]cn1)[C@@H](C)O)[C@@H](C)O)C(C)C)C(=O)N[C@@H](CCC(=O)O)C(=O)NCC(=O)NCC(N)=O
B5: dgc005 (peptide)
peptide: B1 peptide with D15E, S28A
HELM: PEPTIDE1{H.[Aib].Q.G.T.F.T.S.D.Y.S.K.Y.L.E.E.R.A.A.K.E.F.I.A.W.L.E.A.G.G.[am]}|PEPTIDE2{[CCCCCCCCCCCCCCCC(=O)[*:2]].[gGlu].[gGlu]}$PEPTIDE1,PEPTIDE2,20:R3-3:R2$$$V2.0; N-terminus assumed
SMILES: CCCCCCCCCCCCCCCC(=O)N[C@@H](CCC(=O)N[C@@H](CCC(=O)NCCCC[C@H](NC(=O)[C@H](C)NC(=O)[C@H](C)NC(=O)[C@H](CCCNC(=N)N)NC(=O)[C@H](CCC(=O)O)NC(=O)[C@H](CCC(=O)O)NC(=O)[C@H](CC(C)C)NC(=O)[C@H](Cc1ccc(O)cc1)NC(=O)[C@H](CCCCN)NC(=O)[C@H](CO)NC(=O)[C@H](Cc1ccc(O)cc1)NC(=O)[C@H](CC(=O)O)NC(=O)[C@H](CO)NC(=O)[C@@H](NC(=O)[C@H](Cc1ccccc1)NC(=O)[C@@H](NC(=O)CNC(=O)[C@H](CCC(N)=O)NC(=O)C(C)(C)NC(=O)[C@@H](N)Cc1c[nH]cn1)[C@@H](C)O)[C@@H](C)O)C(=O)N[C@@H](CCC(=O)O)C(=O)N[C@@H](Cc1ccccc1)C(=O)N[C@H](C(=O)N[C@@H](C)C(=O)N[C@@H](Cc1c[nH]c2ccccc12)C(=O)N[C@@H](CC(C)C)C(=O)N[C@@H](CCC(=O)O)C(=O)N[C@@H](C)C(=O)NCC(=O)NCC(N)=O)[C@@H](C)CC)C(=O)O)C(=O)O
B6: dgc004 (peptide)
peptide: B1 peptide with D15E, S28A
HELM: PEPTIDE1{H.[Aib].Q.G.T.F.T.S.D.Y.S.K.Y.L.E.E.R.A.A.K.E.F.I.A.W.L.E.A.G.G.[am]}|PEPTIDE2{[CCCCCCCCCCCCCCCC(=O)[*:2]].[gGlu]}$PEPTIDE1,PEPTIDE2,20:R3-2:R2$$$V2.0; N-terminus assumed
SMILES: CCCCCCCCCCCCCCCC(=O)N[C@@H](CCC(=O)NCCCC[C@H](NC(=O)[C@H](C)NC(=O)[C@H](C)NC(=O)[C@H](CCCNC(=N)N)NC(=O)[C@H](CCC(=O)O)NC(=O)[C@H](CCC(=O)O)NC(=O)[C@H](CC(C)C)NC(=O)[C@H](Cc1ccc(O)cc1)NC(=O)[C@H](CCCCN)NC(=O)[C@H](CO)NC(=O)[C@H](Cc1ccc(O)cc1)NC(=O)[C@H](CC(=O)O)NC(=O)[C@H](CO)NC(=O)[C@@H](NC(=O)[C@H](Cc1ccccc1)NC(=O)[C@@H](NC(=O)CNC(=O)[C@H](CCC(N)=O)NC(=O)C(C)(C)NC(=O)[C@@H](N)Cc1c[nH]cn1)[C@@H](C)O)[C@@H](C)O)C(=O)N[C@@H](CCC(=O)O)C(=O)N[C@@H](Cc1ccccc1)C(=O)N[C@H](C(=O)N[C@@H](C)C(=O)N[C@@H](Cc1c[nH]c2ccccc12)C(=O)N[C@@H](CC(C)C)C(=O)N[C@@H](CCC(=O)O)C(=O)N[C@@H](C)C(=O)NCC(=O)NCC(N)=O)[C@@H](C)CC)C(=O)O

What follows are binders tested against GLP-1 receptor (GLP-1R), stably expressed on HEK293 cells (assay: cell-based or functional assay).
B1 was tested, and the “GLP-1R (nM EC50), receptor-mediated cAMP production in HEK293 cells” value (from here on “GLP-1R (nM EC50)”) was 0.28 nM. B2 was tested, and the “GLP-1R (nM EC50)” value was 0.742 nM. B3 was tested, and the “GLP-1R (nM EC50)” value was 0.537 nM. With H[Aib]QGTFTSDYSKYLEERAAKEFIAWLEAGG-NH2 (not fully specified (residue 20)) [dgc006] the “GLP-1R (nM EC50)” value was 0.472 nM. With B4 the “GLP-1R (nM EC50)” value was 0.044 nM. H[Aib]QGTFTSDYSKYLEERAAKEFIAWLESGG-NH2 (not fully specified (residue 20); printed as HAibQGTFTSDYSKYLEERAAK*EFIAWLESGG) [dgc009] was tested, and the “GLP-1R (nM EC50)” value was 0.092 nM. H[Aib]QGTFTSDYSKYLEERAAKEFIAWLEAGG-NH2 (not fully specified (residue 20)) [dgc011] was tested, and the “GLP-1R (nM EC50)” value was 0.955 nM. B5 was tested, and the “GLP-1R (nM EC50)” value was 0.484 nM. B6 was tested, and the “GLP-1R (nM EC50)” value was 0.113 nM.

What follows are binders tested against Glucagon receptor (GCGR), stably expressed on HEK293 cells (assay: cell-based or functional assay).
With B1 the “GCGR (nM EC50), receptor-mediated cAMP production in HEK293 cells” value (shortened to “GCGR (nM EC50)”) was 0.971 nM. In the case of B2, the “GCGR (nM EC50)” value is reported as 2.03 nM. For B3, the “GCGR (nM EC50)” value was 0.614 nM. For H[Aib]QGTFTSDYSKYLEERAAKEFIAWLEAGG-NH2 (not fully specified (residue 20)) [dgc006], the “GCGR (nM EC50)” value was 6.41 nM. B4 was tested, and the “GCGR (nM EC50)” value was 2.17 nM. H[Aib]QGTFTSDYSKYLEERAAKEFIAWLESGG-NH2 (not fully specified (residue 20); printed as HAibQGTFTSDYSKYLEERAAK*EFIAWLESGG) [dgc009] was tested, and the “GCGR (nM EC50)” value was 8.22 nM. In the case of H[Aib]QGTFTSDYSKYLEERAAKEFIAWLEAGG-NH2 (not fully specified (residue 20)) [dgc011], the “GCGR (nM EC50)” value is reported as 4.13 nM. For B5, the “GCGR (nM EC50)” value was 1.16 nM. For B6, the “GCGR (nM EC50)” value was 5.84 nM.
